Experimental data from publication PMC11730255 (Molecular Therapy Oncology, 2024).

Target: T1, rhB7-H6 biotinylated Fc fusion protein (human, UniProt Q68D85 25-262, biotin)
T1 construct: B7-H6 (natural cytotoxicity triggering receptor 3 ligand 1), human; supplier named under library sorting; the BLI methods say only 'B7-H6'; source: bought: R&D Systems
T1 sequence (looked up): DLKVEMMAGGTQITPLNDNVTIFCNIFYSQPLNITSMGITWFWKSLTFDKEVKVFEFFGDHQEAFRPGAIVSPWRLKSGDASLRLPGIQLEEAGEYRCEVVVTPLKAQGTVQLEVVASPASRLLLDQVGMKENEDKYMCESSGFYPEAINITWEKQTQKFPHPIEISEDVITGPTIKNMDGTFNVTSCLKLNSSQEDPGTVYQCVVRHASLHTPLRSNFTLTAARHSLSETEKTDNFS
Test: BLI; competition/epitope binning: antibodies coupled on activated ARG2G biosensors, first association with NKp30 3 min, second association 3 min with B7-H6 or the other NKp30 binders; both orientations, 25 C
Settings: both partners purified

B1: Recombinant human His-tagged ECD of NKp30 (receptor, UniProt O14931 19-135, looked up)
chain: LWVSQPPEIRTLEGSSAFLPCSFNASQGRLAIGSVTWFRDEVVPGKEVRNGTPEFRGRLAPLASSRFLHDHQAELHIRDVRGHDASIYVCRVEVLGLGVGTGNGTRLVVEKEHPQLG
notes: NKp30 (natural cytotoxicity triggering receptor 3), human, extracellular domain; supplier named under library sorting; also called rhNKp30; NKp30 His-tagged protein; source: bought: ACROBiosystems
B1: binds.
